Assay results published in PMC12157425 (bioRxiv, 2025).
Where no end group is shown, it is not given here. [ ]: non-standard residue; d: D form. pT = C[C@@H](OP(=O)(O)O)[C@H](N)C(=O)O; pS = N[C@@H](COP(=O)(O)O)C(=O)O

Legend:
βarr1 = βarr1 (Homo sapiens, UniProt P49407, A12C/C125S/C140L/C150V/C242V/C251V/C269S/C59V/V387C); test: smFRET imaging of surface-tethered βarr1–12-387-AF488-AT647N C-tail sensor; type: biochemical; conditions: parent sensor, 100 μM PIP2
3Q βarr1 = 3Q βarr1 (Homo sapiens, UniProt P49407, C125S/C140L/C150V/C242V/C251V/C269S/C59V/K232Q/K250Q/R236Q); test: Fluorescence polarization binding of BODIPY-PIP2 to 3Q βarr1; conditions: FP with a BODIPY-derivative of PIP2
[1] = target: βarr1–12-398-AF488-AT647 (human) (UniProt P49407)
[2] = target: βarr1–12-387-AF488-AT647N (cysteine-free human β-arrestin 1 C-tail sensor with cysteines at positions 12 and 387) (human) (UniProt P49407); test: other fluorescence titration
[3] = target: 3A βarr1 (F388A/V387C/I386A triple mutant of the βarr1–12-387 C-tail sensor) (human) (UniProt P49407); test: single-molecule FRET
[4] = target: βarr1–12-387-AF488-AT647N (cysteine-free human β-arrestin 1 C-tail sensor with cysteines at positions 12 and 387) (human) (UniProt P49407); test: single-molecule FRET
[5] = target: βarr1–12-387-AF488-AT647N (cysteine-free human β-arrestin 1 C-tail sensor with cysteines at positions 12 and 387) (human) (UniProt P49407); test: single-molecule FRET; remark: listed apart in the source

| Molecule | mid-FRET dwell time representing the PIP2-bound state (βarr1) | binding of PIP2 to βarr1 3Q (3Q βarr1) | EC50 [1] | EC50 [2] | EC50 [3] | EC50 [4] | EC50 [5] |
| --- | --- | --- | --- | --- | --- | --- | --- |
| phosphatidylinositol 4,5-bisphosphate [PIP2] | ~2 s | essentially lost binding | – | – | – | – | – |
| ARGR[pT]PP[pS]LGPQDE[pS]C[pT][pT]A[pS][pS][pS]LAKDTSS | – | – | 0.75 µM | 1.5 µM | 0.4 µM | 11.8 µM | 11.6 µM |
| ARGRTPPSLGPQDESCT[pT]A[pS][pS][pS]LAKDTSS [P56, V2Rpp-derived phosphopeptide lacking four N-terminal phosphorylation sites] | – | – | – | 30 µM | – | – | – |
